The subject of the data set is T1, Cc1cc(=O)oc2cc(NC(=O)[C@H](CCCNC(=N)N)NC(=O)[C@H](C)NC(=O)[C@H](CCC(N)=O)NC(=O)OC(C)(C)C)ccc12.
T1 construct: purchased R&D Systems 4776-SE-010
Description: Km determination of fluorogenic substrate with hepsin. It is filed as biochemical, human. As to the method:
In black 384 well plates (Corning #3575), 12.5 nM HGFA was mixed with various amounts of Boc-QLR-AMC and 1 nM matriptase and 0.3 nM hepsin were mixed with various amounts of Boc-QAR-AMC. Changes in fluorescence (excitation at 380 nm and emission at 460 nn) were measured at room temperature over time in a Biotek Synergy 2 plate reader (Winnoski, Vt.). Using plots of the mean reaction velocity versus substrate concentration and the Michaelis-Menten enzyme kinetics equation within GraphPad Prism version 6.04 for Windows (GraphPad Software, San Diego, Calif., www.graphpad.com), the reaction Vmax and subsequent Km for each of the substrates were determined.

Experimental findings from patent US11130780B2, “Inhibitors of growth factor activation enzymes” (Washington University, priority 2015, dated 2021) are described below.

Sequence of hepsin (Homo sapiens) (chain, as listed by the source): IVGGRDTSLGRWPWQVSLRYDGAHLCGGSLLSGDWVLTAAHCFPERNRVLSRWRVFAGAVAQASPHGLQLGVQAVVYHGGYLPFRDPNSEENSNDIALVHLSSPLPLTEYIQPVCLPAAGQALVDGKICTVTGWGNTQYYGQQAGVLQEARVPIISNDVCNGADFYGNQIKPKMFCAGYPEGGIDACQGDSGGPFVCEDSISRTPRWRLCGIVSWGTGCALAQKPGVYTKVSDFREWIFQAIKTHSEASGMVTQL

hepsin (Homo sapiens): the Km was 156 µM.

Broadly, the Km is the concentration of substrate that gives half-maximal velocity.
